# Results from the Human Domainome abundance scans (Beltran et al. 2025).
# ± gives the uncertainty stated by the source.
# Experiment: abundance fitness (aPCA) (normalised: wild type 0, dead -1); higher = more abundant; growth selection in yeast, the domain comes from the species named
# Conditions: Homo sapiens
row,Substance,abundance fitness
1,"SAFB-like transcription modulator V44R, Q9NWH9",-0.054 ± 0.034
2,"SAFB-like transcription modulator V44S, Q9NWH9",0.036 ± 0.051
3,"SAFB-like transcription modulator V44T, Q9NWH9",-0.008 ± 0.06
4,"SAFB-like transcription modulator V44W, Q9NWH9",-0.358 ± 0.055
5,"SAFB-like transcription modulator V44Y, Q9NWH9",-0.258 ± 0.081
6,"SAFB-like transcription modulator V47A, Q9NWH9",-0.025 ± 0.058
7,"SAFB-like transcription modulator V47C, Q9NWH9",-0.074 ± 0.037
8,"SAFB-like transcription modulator V47D, Q9NWH9",-0.001 ± 0.065
9,"SAFB-like transcription modulator V47E, Q9NWH9",0.022 ± 0.068
10,"SAFB-like transcription modulator V47F, Q9NWH9",-0.447 ± 0.044
11,"SAFB-like transcription modulator V47G, Q9NWH9",-0.28 ± 0.038
12,"SAFB-like transcription modulator V47H, Q9NWH9",-0.329 ± 0.081
13,"SAFB-like transcription modulator V47I, Q9NWH9",0.051 ± 0.066
14,"SAFB-like transcription modulator V47K, Q9NWH9",0.003 ± 0.063
15,"SAFB-like transcription modulator V47L, Q9NWH9",-0.125 ± 0.038
16,"SAFB-like transcription modulator V47M, Q9NWH9",0.013 ± 0.061
17,"SAFB-like transcription modulator V47N, Q9NWH9",-0.079 ± 0.045
18,"SAFB-like transcription modulator V47P, Q9NWH9",-0.585 ± 0.056
19,"SAFB-like transcription modulator V47Q, Q9NWH9",0.019 ± 0.047
20,"SAFB-like transcription modulator V47R, Q9NWH9",-0.207 ± 0.043
21,"SAFB-like transcription modulator V47S, Q9NWH9",-0.152 ± 0.048
22,"SAFB-like transcription modulator V47T, Q9NWH9",0.089 ± 0.064
23,"SAFB-like transcription modulator V47Y, Q9NWH9",-0.525 ± 0.044
